Experimental data from the supplement of paper PMC9170038.

Test system: MS2 coat protein
Test: apparent KD of MS2 coat protein; designed switch direction (-1 OFF switch, 1 ON switch): -1; higher = weaker reporter binding
Summary of the method: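 Three titration conditions were used: no input, 200 uM small-molecule ligand, and an oligonucleotide input. In each, SNAP-549-labelled MS2 coat protein was raised from 0.7 or 1.5 nM, doubling, to 3 µM over designed RNA switches transcribed on Illumina chips by stalled E. coli RNA polymerase. Curve fits of normalised cluster fluorescence gave values whose per-design median over clusters is the apparent KD.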

[1] = input ligand: microRNA oligo, concentration not stated

Row | Sequence | apparent KD of MS2 coat protein (input ligand: FMN 200 uM) | apparent KD of MS2 coat protein [1] | apparent KD of MS2 coat protein (input ligand: none)
1 | AGCCGGUCGUGAGGAUAUUACAUGAGGAUCACCCAUGUCGACGGGCUACGGGCGGUCGGCUCGUGUGAGAAGGCGCGCCCGGAA [Tibibiza] (Eterna round: R96, puzzle: Exclusion NG 2) | 0.0173 µM | 0.00833 µM | 0.0176 µM
2 | AGCCUGCAAGUAAGGAUAUGAAGUUAAAAGAACGGUCAGAAGGUACUUGAGGAUCACCCAAGUACGGGAGCGUG [Teuscema] (Eterna round: R97, puzzle: Brourd's mod of Exclusion 4) | 0.041 µM | – | 0.0163 µM
3 | AGCGAAGAGACAGGAUAUGAGAAUAGAUAGAACUCAGAAGGGUCACAUGAGGAUCACCCAUGUAAAGUCUUGAGGCUGCGUGGU [Prohibition 9 - Jieux - Exclusion NG 1] (Eterna round: R96, puzzle: Exclusion NG 1) | 0.141 µM | 0.0507 µM | 0.0719 µM
4 | AGCGAAUAGACAGGAUAUGAGAAUAGAUAGAGCUCAGAAGGGUCACAUGAGGAUCACCCAUGUGAAGUCUUGAGGCUGCGUGGU [Prohibition 18 - Jieux - Exclusion NG 1] (Eterna round: R96, puzzle: Exclusion NG 1) | 0.0131 µM | 0.0134 µM | 0.0161 µM
5 | AGCGCAUGAGGAUAUACAUGAGGAUCACCCAUGUUCCAGUGAGCACUAGUGAGAGUCAGUAGAAGGUAUAGGGC [Cecete] (Eterna round: R97, puzzle: Exclusion 3) | 0.151 µM | – | 0.172 µM
6 | AGCGUCUGAGGAUAUGCAUCUUAUCAGUCCGUGCGUAAGCGACAUGAGGAUCACCCAUGUAGAAGGUAGAUGCG [Eternabot (L1) Solution 10] (Eterna round: R97, puzzle: Exclusion 2) | 0.0196 µM | – | 0.0176 µM
7 | AGCGUGUUAGGAUAUACACGACACUGGGUAGCGGGUGGAGGGUAGAAGGGACAUGAGGAUCACCCAUGUUCGGG [Ortere] (Eterna round: R97, puzzle: Exclusion 4) | 0.0285 µM | – | 0.035 µM
8 | AGCUAGUCAGGAUAUACGUAAAUGUCGAAAGACGUAUUGGGACAUGAGGAUCACCCAUGUAGAAGGGACUAGCA [Mod of Janderson's WEB Mod v.1] (Eterna round: R96, puzzle: Exclusion 2) | 0.168 µM | 0.0197 µM | 0.0248 µM
9 | AGCUGUGGCCGAGGAUAUCACGAACCAUGGAAAACCAUGGAAAUUCUACAUGAGGAUCACCCAUGUGAGAAGGCGGUCUCAGCA [Eli eng2 - 023] (Eterna round: R96, puzzle: Exclusion NG 2) | – | 0.0125 µM | –
10 | AGCUGUGGCCGAGGAUAUCCACAUGAGGAUCACCCAUGUCGAUACGCCGUUAAAGGCGAUAUAAGGGAGAAGGCGGUCUCAGCA [Eli eng2 - 052] (Eterna round: R96, puzzle: Exclusion NG 2) | 0.00735 µM | 0.00669 µM | 0.0102 µM
11 | AGCUGUGGCCGAGGAUAUCUAACAAUCCCAACCGAAAUAUAAUCGGACAUGAGGAUCACCCAUGUAGAGAAGGCGGUCUCAGCA [Eli eng2 - 073] (Eterna round: R96, puzzle: Exclusion NG 2) | – | 0.137 µM | –
12 | AGCUGUGGCCGAGGAUAUCUGAAAACUCAAACCGAAAUAUAAUCGGACAUGAGGAUCACCCAUGUAGAGAAGGCGGUCUCAGCA [Eli eng2 - 062] (Eterna round: R96, puzzle: Exclusion NG 2) | – | 0.0457 µM | –
